Data from the domain aggregation screens of Martell et al. (2025).

Assay: soluble fraction after stress (log2 fold change); higher = more stays soluble; pooled small domains, quantitative proteomics
Conditions: stress: 50 degC
Summary of the method: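 Pooled custom libraries of small protein domains were each held under stress at 50°C. The read-out, high-throughput quantitative proteomics, tracked how much of each protein stayed soluble. This is reported as a base-two log fold change used to indicate aggregation propensity. Higher values mean more protein remains in solution.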

“HMNKVAQFYRELVSTLSERLRNGERDIDALVEQARVRISQSGELTQSEIENVIRAVRRDLEEFALSYEE” and “HMGTRPIQIASFSKEENAKRAVEALAKIGITAQPQKSGSATKAVWGVVANGDADLLAKIKAAGFADAYFL” are within 0.2 log units of each other in “soluble fraction (log2)” value: 0.0926 for the first, 0.0667 for the second.

“HMSSLTPRETEVLSRMAQGDANTSIAERLVITEKAVQKHINAIFAKLGLAEEPTSARRVLAVLAFLR” and “HMIMHLNQIIRNKRLAAGLTQEALAQKVGVTAPAVSKWEKGISYPDITLLPILARNLNTDVNTLLDFSA” are within 0.2 log units of each other in “soluble fraction (log2)” value: -0.512 for the first, -0.641 for the second.

“HMSEEGTIPDVSGQDEASAQKALENAGFTNIKSEAVYSEEEQGTVIDTNPTAGTKVSKDTEITMQVSKGSE” and “HMQISDVSLIAKVIDDVIDNNVKSVSDYLEGNLNVLRFLVGQVMKETKGKANPQKATELLQEKLESLNN” are within 0.2 log units of each other in “soluble fraction (log2)” value: -0.34 for the first, -0.429 for the second.

First: HMLPISGDDRDALDMAALILKQYDSLPILKEFANVVTKLQTVLDGVVSNSIEARRQMIQFEE
Second: HMGQVSEAGELEVAADRVIAANPEAVTKYKSGNENILQFLVGQMMKETKGAANPQVAAEILRKKIV
The “soluble fraction (log2)” value of the first is lower: -0.0336 for the first, 0.254 for the second.

First: HMRIAGIDIPDNKRGEVALTYIFGIGRSSSKKILKSAGIDSDKQIGKWTDDESNLVRKLIRDEYTIEGDL
Second: HMKSLVDLEISIVKKDMNYFVLPKINGEPLLMERISASEYKDFQLGKLSKEDIFQKHYPDYSEENIKNGRG
The “soluble fraction (log2)” value of the first is lower: -0.412 for the first, 0.145 for the second.

First: HMTELIEDYVELIGDLIRHRGEARAADIANRMAVSQATVSKMIRRLNELGLVTSKPYRSLFLTDEGQKMAE
Second: HMDAEELNSKAKDEFTWLEDDESETNLEYRKMVSSEDMAIVAKVAPALAAKLKYQLAHAATNMV
The “soluble fraction (log2)” value of the first is lower: -0.474 for the first, 0.0207 for the second.

“HMSMNGNMIHATVIWKGRYFLVKMFFPQLTKPKRAEVQAQIEKAYPGSRVASYHITDYKPGEQFLHV” and “HMRLIALPSVTDISIRQAEATLMSIGIKVSSIQYAPSEYKDLVLEVKYRGQSIIQGAKIPEGSSVVLVAGN” are within 0.2 log units of each other in “soluble fraction (log2)” value: -1.51 for the first, -1.56 for the second.

Going from “HMEKEYMKNVVGMEYRQARVLLGDMGLELAFQPVYETSDKYPTDVVVSTEPAADQPLTKGQTVILHIST” to “HMRVPQWLVDKIAAAGIDTHRSGPALKALAAKAGTPEQLDQAIARAKALRRRTGSTQSLNVGLLGSILEGT”, the “soluble fraction (log2)” value falls from 0.288 to -0.106.

Compared with “HMKDLIGEAKAKELALGHAKLSASDVTFIHVELDWENGRRVYDVEFYSGAKEYDYEIDAKTGEIVSFDY”, “HMTDWNTVEKETLSAIQKVLSGQASWIDLSPADHSIRHMQHEMVQQAGLISQSYGKEPMRRIRIYQNP” is higher in “soluble fraction (log2)” value: -1.27 for the first, 0.117 for the second.

Going from “HMKLISVAVMRASDAAEIAGGTDSKTLMYRAGLGLFQSWDWHGKIDIVTGSGNNAGDGYVLALLL” to “HMSENIQLQKEQLYQLIAQLPEQRQKIFRLHKIDNYSYQEISDFTGLSRKTIANHIYLAHQFILKKVKK”, the “soluble fraction (log2)” value falls from -0.0519 to -3.25.

Going from “HMGKTIIQLATDYLIKNMQPKSLHDIESYVLTRKKIKKSSIGAILLSKPNIFGRTEDGLFGLRIWNNFQYT” to “HMTVGEKIQKYRKDLDLSQEELGQKLLVSRQTISLWEKDQTVPTIDNLIRLREIFGVSVDEILGF”, the “soluble fraction (log2)” value rises from -0.738 to -0.409.

First: HMKSLPQKLLAYLESQGLTRDEAGEFVKQGLKITSNDVDQIQLLLANTEVIDIKLQEFIAQK
Second: HMIKSMTGYGSAKGTVEGIEVSVELKSVNNKFLDTSIRLPRSFLFAEETIKQAVSSHISRGKVDVFVSVDS
The “soluble fraction (log2)” value of the first is lower: 0.217 for the first, at least 0.62 for the second.

First: HMTEWSIHEVAQRSGVTTRTLRHYDAIGILSPTRTGANGYRYYGPEALVRLQRILLLRDLGLALSDIAE
Second: HMSESAGKALDILFYLARVEDEVSLARLSKETGMNKATALRYLAVLESWGVVEKRPSGWSLGLSLFELGSK
The “soluble fraction (log2)” value of the first is lower: -4.61 for the first, -2.13 for the second.

“HMNIAAVIGQTGVLQDDLKAGEQGTVKADNKLWTAVLAEGEEAVKKEERVDIVAVEGVKLIVRRNI” and “HMTTYSVDLGDIRAVADSDGKLVELTLHAAVTTHYSHSELADRLNLAFTALREEAQADYETRY” are within 0.2 log units of each other in “soluble fraction (log2)” value: 0.0397 for the first, 0.127 for the second.

“HMQETKDEGAQVLLNKINALVAAVQGQIITPEEAAIKLATDGDLDLDVDARVAAIEEFNKKLSEAQNN” and “HMVEPIEESISQLSLLLQSLYEDGKSEVSFEELIRSDRSRVSLFLALLFMAQRGNVYLEQEELFGDLRVKN” are within 0.2 log units of each other in “soluble fraction (log2)” value: 0.0497 for the first, 0.0123 for the second.

“HMKEAITVIGGKNNITFDASAQAEIGIYSMDGVQIQKKTISDNERIDLPAGMYVVTVKTGQANVSKVVVV” and “HMSRGAIVTGTVIEKNQSGIYVDLGYKSDGIVPIEEFDGEESKYNVGDQIRVYVKKVDDGHGQLML” are within 0.2 log units of each other in “soluble fraction (log2)” value: 0.00681 for the first, 0.126 for the second.

First: HMTLLVPASKEAILGGLAKIDALKVILKPEKDYSKTHAMTIGTKDEVIAKLDSFLSGMDSEKNQVLIQEYM
Second: HMSAPEGWMNRGDLRDNFRIQYPVTDRIIASYRESHPEWFGTYLSKTSKSLEYFHPDLVAKVREAAN
The “soluble fraction (log2)” value of the first is higher: 0.107 for the first, -0.101 for the second.

First: HMIQLTDAEFNELVTYIKKNYGINLIKKRLLIEARMYSVLAKHGFTSFTEYINLIKRDPAELNTMLNKLTT
Second: HMEPVQFIQFKIPDGHPWSGQLLREVRLPPGTLVVLLKHDGKNIIPNGETPLLAGDSVILSAASPT
The “soluble fraction (log2)” value of the first is lower: -1.72 for the first, -0.197 for the second.

First: HMTPNATWQDDAQSLLRDLIQHQPVLIQISAAKRLRDQAEQISRITGGDTVTRDHVEAAGHALGMGVT
Second: HMEPERRHLEVPAEAEGERIDRFLASQLENLSRSRIQALIKAGYVRNRRGTIEDPGLRVKPGDAFVVDLPP
The “soluble fraction (log2)” value of the first is lower: 0.0517 for the first, 0.44 for the second.

Going from “HMAPVLTRREHEVLHLLTDGLDNRTIARNLFISEATVKFHLHNIMGKFGVHRRAALVSTALRG” to “HMLAFDKDDSGAVAEIILVLGRYWMDFSHKKYPAAEGVALRHKGLSHIFTVLRPYLSTPASELIGERLRR”, the “soluble fraction (log2)” value rises from -2.21 to -0.409.

Going from “HMKSSISKNWNPSKDAIEILTRAGIDQEFLENLIPEFVIYWIERSDVLISYNSKFIEHARLKWAQHTAEIQ” to “HMSDAQIKASINDLWFKYNLETFAKLNLNVNQGRVLVTGIVQNPEHRLEAIRLVWTVDGVQQVINEIQVAE”, the “soluble fraction (log2)” value falls from -0.0223 to -0.795.

First: HMGIIVDMSKIKQMLQLSEAGHSNRKIALELGINKETVNNYMQLIRNGRLDIRQLLKMDDPELERRFHA
Second: HMGETISVPAVRSLAYDRAVDMLTAEGLKGIVADSVYDNRTQPGTVIEQNPKAGTIVKEGREVYLTINA
The “soluble fraction (log2)” value of the first is lower: -0.329 for the first, 0.157 for the second.

First: HMISFHEYLTQLLDEKGLTKAQVITDSNIQKNYGYQIFDGSKTPSRDKVIAIALAMQLTLDEANRLLHLSN
Second: HMAMNLQETVLMQLRDLILRGTFEPGQRLSEQPLAERLKASRTPVRSALVTLEQEGLIEASETGKYLVRQ
The “soluble fraction (log2)” value of the first is lower: -1.47 for the first, -0.421 for the second.

“HMDHKTKLQEVLQKSGDVFIEYRLIKEEGPAHERIFWIEVYVDDQLIGTGQGKSKKLAEQAAAENALAALE” and “HMDVLSPEEWIEFRTAYNNNRYISQYGSKGATIEDDYATRLAMIGGKESYYFLNDPRWTEPGYGNLK” are within 0.2 log units of each other in “soluble fraction (log2)” value: -0.252 for the first, -0.437 for the second.

Going from “HMEQYYVFFAGGMTIGTKEWYESILPENIATSYDDILEGKMMPASLEQIEFYNSHKDYDLYHLFYML” to “HMVWNVEQIKRAVDQLPDGYRVVFTLYLFEGYDHREIADILGISEGGSKSQFNRAKSKLKEILTAMS”, the “soluble fraction (log2)” value rises from -4.11 to -1.98.
